Changes are numbered by the printed parent chain. In names and notes the source's numbering stands.
B1: Ob2843; galactarate dehydratase GalrD-II (Oceanobacillus iheyensis HTE831) (protein)
chain: MKITDLELHAVGIPRHTGFVNKHVIVKIHTDEGLTGIGEMSDFSHLPLYSVDLHDLKQGLLSILLGQNPFDLMKINKELTDNFPETMYYYEKGSFIRNGIDNALHDLCAKYLDISVSDFLGGRVKEKIKVCYPIFRHRFSEEVESNLDVVRQKLEQGFDVFRLYVGKNLDADEEFLSRVKEEFGSRVRIKSYDFSHLLNWKDAHRAIKRLTKYDLGLEMIESPAPRNDFDGLYQLRLKTDYPISEHVWSFKQQQEMIKKDAIDIFNISPVFIGGLTSAKKAAYAAEVASKDVVLGTTQELSVGTAAMAHLGCSLTNINHTSDPTGPELYVGDVVKNRVTYKDGYLYAPDRSVKGLGIELDESLLAKYQVPDLSWDNVTVHQLQDRTADTKS
B2: Ob2843; galactarate dehydratase GalrD-II (Oceanobacillus iheyensis HTE831; Y90F) (protein)
chain: B1 chain with Y90F

Substrate: O=C(O)[C@@H](O)[C@H](O)[C@H](O)[C@@H](O)C(=O)O
Experiment: purified protein
Type: biochemical, Oceanobacillus iheyensis
Settings: 50 mM Hepes pH 8.0, 5 mM MgCl2

Protein	Km [µM]	kcat [s⁻¹]	kcat/Km [M⁻¹ s⁻¹]
B1	620 ± 380	6.8 ± 1.2	11000
B2	2000 ± 480	0.0061 ± 0.006	3.1

From PMC2787699
